This data set is described as follows: BioID2 proximity profile; Myc immunofluorescence. The note with it: glycan lost; control: EMP3 WT bait.

B1: Epithelial membrane protein 3 (EMP3): N47A (protein)
parent chain: MSLLLLVVSALHILILILLFVATLDKSWWTLPGKESLNLWYDCTWNNDTKTWACSNVSENGWLKAVQVLMVLSLILCCLSFILFMFQLYTMRRGGLFYATGLCQLCTSVAVFTGALIYAIHAEEILEKHPRGGSFGYCFALAWVAFPLALVSGIIYIHLRKRE
B1: the localisation_or_trafficking result was “no change”.

The record behind these values is article PMC10629159.
